Non-standard residues stand in square brackets, D forms with d. Phe(3,4,5-F3) = N[C@@H](Cc1cc(F)c(F)c(F)c1)C(=O)O; Ac6c = NC1(C(=O)O)CCCCC1
T1: Y2 receptor (human, UniProt P49146 1-381)
T1 construct: whole, on cells; Assayed as membrane homogenates of SK-N-BE2 cells, not intact cells
T1 sequence (looked up): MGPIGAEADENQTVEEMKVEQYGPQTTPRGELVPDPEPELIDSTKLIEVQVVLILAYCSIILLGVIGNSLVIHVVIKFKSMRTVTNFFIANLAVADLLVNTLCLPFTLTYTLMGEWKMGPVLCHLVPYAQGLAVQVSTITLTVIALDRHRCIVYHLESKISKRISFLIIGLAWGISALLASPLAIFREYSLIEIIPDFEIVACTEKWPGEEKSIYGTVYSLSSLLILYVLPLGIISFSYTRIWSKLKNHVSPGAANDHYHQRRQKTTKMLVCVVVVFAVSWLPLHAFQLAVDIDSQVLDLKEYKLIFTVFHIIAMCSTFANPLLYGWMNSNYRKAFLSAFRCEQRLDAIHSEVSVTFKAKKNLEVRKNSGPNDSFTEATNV

T2: Y1 receptor (human, UniProt P25929 1-384)
T2 construct: whole, on cells; Assayed as membrane homogenates of SK-N-MC cells, not intact cells; also called NPY Y1
T2 sequence (looked up): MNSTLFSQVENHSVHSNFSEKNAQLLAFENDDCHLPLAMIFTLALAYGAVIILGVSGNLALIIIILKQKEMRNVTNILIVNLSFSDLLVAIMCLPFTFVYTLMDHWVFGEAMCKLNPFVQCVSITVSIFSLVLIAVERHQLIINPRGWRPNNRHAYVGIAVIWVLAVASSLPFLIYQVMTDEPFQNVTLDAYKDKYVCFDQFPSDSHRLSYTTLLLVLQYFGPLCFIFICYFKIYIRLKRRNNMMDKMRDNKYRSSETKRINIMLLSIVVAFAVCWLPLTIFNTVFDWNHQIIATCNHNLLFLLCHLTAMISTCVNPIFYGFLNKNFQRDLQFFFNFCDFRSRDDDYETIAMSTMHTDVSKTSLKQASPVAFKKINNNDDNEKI

T3: Y1 receptor (human), P25929
T3 chain: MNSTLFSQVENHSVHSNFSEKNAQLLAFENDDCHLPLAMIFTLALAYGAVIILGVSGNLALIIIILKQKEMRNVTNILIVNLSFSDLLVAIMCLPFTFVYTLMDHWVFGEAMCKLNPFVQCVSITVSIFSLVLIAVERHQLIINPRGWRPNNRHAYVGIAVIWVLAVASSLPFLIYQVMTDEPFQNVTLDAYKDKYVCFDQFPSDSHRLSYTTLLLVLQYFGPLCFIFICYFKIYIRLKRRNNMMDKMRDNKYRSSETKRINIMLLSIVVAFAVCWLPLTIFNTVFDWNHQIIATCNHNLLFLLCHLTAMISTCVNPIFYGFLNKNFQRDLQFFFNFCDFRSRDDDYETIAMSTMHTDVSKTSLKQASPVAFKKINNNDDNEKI

T4: Y2 receptor (human), P49146
T4 chain: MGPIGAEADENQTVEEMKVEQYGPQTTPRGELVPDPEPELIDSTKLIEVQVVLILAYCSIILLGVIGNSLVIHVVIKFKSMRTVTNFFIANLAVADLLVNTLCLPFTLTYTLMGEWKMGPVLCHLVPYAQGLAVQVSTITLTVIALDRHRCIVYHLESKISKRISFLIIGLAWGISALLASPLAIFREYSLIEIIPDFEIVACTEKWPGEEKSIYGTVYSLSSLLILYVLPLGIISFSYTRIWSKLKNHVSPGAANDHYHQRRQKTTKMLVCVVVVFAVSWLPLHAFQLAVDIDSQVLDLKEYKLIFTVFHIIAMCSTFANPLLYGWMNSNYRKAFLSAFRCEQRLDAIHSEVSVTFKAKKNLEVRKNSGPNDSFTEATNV


Key:
Y2 receptor = molecular target: T1, Y2 receptor; assay: radioligand competition against [125I]PYY(3-36), SK-N-BE2 membranes, Cheng-Prusoff
Description: (§1) The final pellets were resuspended in approximately 20 ml of 50 mM Tris-HCl containing 5.0 mM MgCl₂, 0.1 mg/ml bacitracin, and 0.1% BSA (Buffer B), and held on ice for the receptor binding assay.
(§2) For assay, aliquots (0.4 ml) of the foregoing suspensions were incubated with 0.05 ml of 0.05 nM [¹²⁵I-Leu³¹, Pro³⁴]PYY (Y1 receptor) or [¹²⁵I]PYY(3-36) (Y2 receptor), (each ˜2200 Ci/mmol, New England Nuclear) in Buffer B, with or without 0.05 ml a solution (ranging from 0.01 nM -1000 nM) of an unlabeled competing peptide. After a 120 min incubation (25° C.), the bound radioligand was separated from the free by rapid filtration through GF/C filters, previously soaked in 0.3% polyethyleneimine. […] Inhibition constants (K₁,) were calculated using the well-known Cheng-Prusoff equation.

Y1 receptor = molecular target: T2, Y1 receptor; assay: radioligand competition against [125I-Leu31,Pro34]PYY, SK-N-MC membranes, Cheng-Prusoff
Description: as §1, §2

[1] = molecular target: T3, Y1 receptor (human), P25929
[2] = molecular target: T4, Y2 receptor (human), P49146

Binder | Ki (Y2 receptor) | Ki (Y1 receptor) | Ki [1] | Ki [2]
Ac-LRHYLNL[Ac6c]TRQRY-NH2 (SMILES CC(=O)N[C@@H](CC(C)C)C(=O)N[C@@H](CCCNC(=N)N)C(=O)N[C@@H](Cc1c[nH]cn1)C(=O)N[C@@H](Cc1ccc(O)cc1)C(=O)N[C@@H](CC(C)C)C(=O)N[C@@H](CC(N)=O)C(=O)N[C@@H](CC(C)C)C(=O)NC1(C(=O)N[C@H](C(=O)N[C@@H](CCCNC(=N)N)C(=O)N[C@@H](CCC(N)=O)C(=O)N[C@@H](CCCNC(=N)N)C(=O)N[C@@H](Cc2ccc(O)cc2)C(N)=O)[C@@H](C)O)CCCCC1, Synthetic analog of human PYY(24-36)) [Ac-[A6C^31]hPYY(24-36)NH2] | < 1000 nM | < 2000 nM | – | –
Ac-ASLRH[Phe(3,4,5-F3)]LNLVTRQRY-NH2 (SMILES CC(=O)N[C@@H](C)C(=O)N[C@@H](CO)C(=O)N[C@@H](CC(C)C)C(=O)N[C@@H](CCCNC(=N)N)C(=O)N[C@@H](Cc1c[nH]cn1)C(=O)N[C@@H](Cc1cc(F)c(F)c(F)c1)C(=O)N[C@@H](CC(C)C)C(=O)N[C@@H](CC(N)=O)C(=O)N[C@@H](CC(C)C)C(=O)N[C@H](C(=O)N[C@H](C(=O)N[C@@H](CCCNC(=N)N)C(=O)N[C@@H](CCC(N)=O)C(=O)N[C@@H](CCCNC(=N)N)C(=O)N[C@@H](Cc1ccc(O)cc1)C(N)=O)[C@@H](C)O)C(C)C) [Ac-[(3,4,5-F)Phe^27]hPYY(22-36)NH2] | – | – | < 2000 nM | < 1000 nM
Ac-LRHY[Ac6c]NLLTRQRY-NH2 (SMILES CC(=O)N[C@@H](CC(C)C)C(=O)N[C@@H](CCCNC(=N)N)C(=O)N[C@@H](Cc1c[nH]cn1)C(=O)N[C@@H](Cc1ccc(O)cc1)C(=O)NC1(C(=O)N[C@@H](CC(N)=O)C(=O)N[C@@H](CC(C)C)C(=O)N[C@@H](CC(C)C)C(=O)N[C@H](C(=O)N[C@@H](CCCNC(=N)N)C(=O)N[C@@H](CCC(N)=O)C(=O)N[C@@H](CCCNC(=N)N)C(=O)N[C@@H](Cc2ccc(O)cc2)C(N)=O)[C@@H](C)O)CCCCC1, Also carries Leu at 31 (residue 8 of the peptide), already in the entry) [Ac-[A6C^28, Leu^31]hPYY(24-36)NH2] | < 1000 nM | < 2000 nM | – | –
